Results published in publication PMC9482650, “Quantitative fragmentomics allow affinity mapping of interactomes” (Nature Communications, 2022).
Blank lines part the entries; values can stand above or below the binder they belong to.

Columns and labels:
Assay in all cases: holdup assay
Parameters in all cases: key: below the threshold = too weak to quantify, mostly under pKd 3.1 to 4
APBA1_1, Q02410 = molecular target: T1, APBA1_1, Q02410
T1 sequence (Q02410 651-752, limits assumed, looked up): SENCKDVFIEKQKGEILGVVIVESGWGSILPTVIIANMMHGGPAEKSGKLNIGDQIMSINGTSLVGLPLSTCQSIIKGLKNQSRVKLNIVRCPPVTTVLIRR

CASK, O14936 = molecular target: CASK, O14936
DLG3_3, Q92796 = molecular target: T2, DLG3_3, Q92796
T2 sequence (Q92796 374-475, limits assumed, looked up): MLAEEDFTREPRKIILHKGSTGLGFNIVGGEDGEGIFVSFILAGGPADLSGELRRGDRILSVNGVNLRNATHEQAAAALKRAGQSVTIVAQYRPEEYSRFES

FRMPD3, Q5JV73 = molecular target: FRMPD3, Q5JV73
GOPC, Q9HD26 = molecular target: GOPC, Q9HD26
GORASP2, Q9H8Y8 = molecular target: GORASP2, Q9H8Y8
GRID2IP_1, A4D2P6 = molecular target: GRID2IP_1, A4D2P6
GRID2IP_2, A4D2P6 = molecular target: GRID2IP_2, A4D2P6
HTRA2, O43464 = molecular target: HTRA2, O43464
IL16_4, Q14005 = molecular target: IL16_4, Q14005
Inadl_3, Q8NI35 = molecular target: Inadl_3, Q8NI35
Inadl_9, Q8NI35 = molecular target: Inadl_9, Q8NI35
LIMK2, P53671 = molecular target: LIMK2, P53671
LNX1_2, Q8TBB1 = molecular target: LNX1_2, Q8TBB1
LNX1_3, Q8TBB1 = molecular target: LNX1_3, Q8TBB1
LNX2_2, Q8N448 = molecular target: T3, LNX2_2, Q8N448
T3 sequence (Q8N448 334-432, limits assumed, looked up): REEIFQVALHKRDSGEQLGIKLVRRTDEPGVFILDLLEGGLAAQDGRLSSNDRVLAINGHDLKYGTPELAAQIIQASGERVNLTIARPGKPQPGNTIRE

MAGI2_3, Q86UL8 = molecular target: MAGI2_3, Q86UL8
MAGI2_4, Q86UL8 = molecular target: MAGI2_4, Q86UL8
MAST1, Q9Y2H9 = molecular target: MAST1, Q9Y2H9
MAST2, Q6P0Q8 = molecular target: MAST2, Q6P0Q8
NHERF4_2, Q86UT5 = molecular target: NHERF4_2, Q86UT5
PDZD7_3, Q9H5P4 = molecular target: T4, PDZD7_3, Q9H5P4
T4 sequence (Q9H5P4 857-944, limits assumed, looked up): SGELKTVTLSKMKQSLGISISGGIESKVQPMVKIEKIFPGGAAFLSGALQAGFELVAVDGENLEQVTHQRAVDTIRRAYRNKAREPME

PDZRN3_1, Q9UPQ7 = molecular target: T5, PDZRN3_1, Q9UPQ7
T5 sequence (Q9UPQ7 244-349, limits assumed, looked up): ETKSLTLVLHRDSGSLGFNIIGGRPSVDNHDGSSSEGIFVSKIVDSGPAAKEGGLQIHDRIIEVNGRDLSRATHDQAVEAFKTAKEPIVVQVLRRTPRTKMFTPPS

PDZRN4_1, Q6ZMN7 = molecular target: PDZRN4_1, Q6ZMN7
RADIL, Q96JH8 = molecular target: T6, RADIL, Q96JH8
T6 sequence (Q96JH8 971-1071, limits assumed, looked up): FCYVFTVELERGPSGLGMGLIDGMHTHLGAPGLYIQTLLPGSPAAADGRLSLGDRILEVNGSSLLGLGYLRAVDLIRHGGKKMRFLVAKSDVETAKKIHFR

RHPN1, Q8TCX5 = molecular target: T7, RHPN1, Q8TCX5
T7 sequence (Q8TCX5 508-602, limits assumed, looked up): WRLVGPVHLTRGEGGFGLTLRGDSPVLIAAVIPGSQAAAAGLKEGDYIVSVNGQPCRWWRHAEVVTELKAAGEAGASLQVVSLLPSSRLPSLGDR

SNTG2, Q9NY99 = molecular target: T8, SNTG2, Q9NY99
T8 sequence (Q9NY99 68-166, limits assumed, looked up): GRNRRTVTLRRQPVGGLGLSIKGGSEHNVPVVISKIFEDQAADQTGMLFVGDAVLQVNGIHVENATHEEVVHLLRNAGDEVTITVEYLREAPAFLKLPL

TJP1_2, Q07157 = molecular target: TJP1_2, Q07157
TJP2_1, Q9UDY2 = molecular target: TJP2_1, Q9UDY2
[1] = plain residues with an end cap or a label only (N-terminal biotin on a linker: ttds)
[2] = plain residues with an end cap or a label only (N-terminal biotin on a linker: ado-ado)

Sequence of GRID2IP_1, A4D2P6 (A4D2P6 1-87): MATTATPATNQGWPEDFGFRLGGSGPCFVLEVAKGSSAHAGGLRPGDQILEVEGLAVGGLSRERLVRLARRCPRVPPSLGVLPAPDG
Sequence of MAST2, Q6P0Q8 (Q6P0Q8 1099-1202): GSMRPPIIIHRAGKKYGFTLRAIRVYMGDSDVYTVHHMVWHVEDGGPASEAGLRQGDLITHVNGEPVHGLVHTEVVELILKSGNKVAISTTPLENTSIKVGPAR
Sequence of CASK, O14936 (O14936 487-570): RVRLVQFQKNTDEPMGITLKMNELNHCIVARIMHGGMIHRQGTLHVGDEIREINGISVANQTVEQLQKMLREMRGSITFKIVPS
Sequence of GRID2IP_2, A4D2P6 (A4D2P6 272-370): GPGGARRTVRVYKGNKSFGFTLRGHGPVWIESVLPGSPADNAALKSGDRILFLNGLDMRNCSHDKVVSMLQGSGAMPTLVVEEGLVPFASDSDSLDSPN
Sequence of TJP1_2, Q07157 (Q07157 181-274): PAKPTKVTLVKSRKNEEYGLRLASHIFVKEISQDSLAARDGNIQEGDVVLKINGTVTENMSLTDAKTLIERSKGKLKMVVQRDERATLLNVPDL
Sequence of FRMPD3, Q5JV73 (Q5JV73 12-100): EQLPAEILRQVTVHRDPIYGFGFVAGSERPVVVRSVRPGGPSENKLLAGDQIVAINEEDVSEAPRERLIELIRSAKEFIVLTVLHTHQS
Sequence of IL16_4, Q14005 (Q14005 1229-1329): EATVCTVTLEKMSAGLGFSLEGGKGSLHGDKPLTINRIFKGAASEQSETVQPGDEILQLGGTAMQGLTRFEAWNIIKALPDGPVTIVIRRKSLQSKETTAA
Sequence of NHERF4_2, Q86UT5 (Q86UT5 220-308): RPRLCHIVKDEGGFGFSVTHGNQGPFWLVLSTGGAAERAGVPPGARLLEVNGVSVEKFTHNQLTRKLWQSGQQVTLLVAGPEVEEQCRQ
Sequence of MAST1, Q9Y2H9 (Q9Y2H9 962-1065): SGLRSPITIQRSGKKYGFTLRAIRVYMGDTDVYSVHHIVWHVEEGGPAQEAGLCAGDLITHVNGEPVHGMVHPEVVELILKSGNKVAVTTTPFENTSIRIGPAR
Sequence of LNX1_2, Q8TBB1 (Q8TBB1 371-470): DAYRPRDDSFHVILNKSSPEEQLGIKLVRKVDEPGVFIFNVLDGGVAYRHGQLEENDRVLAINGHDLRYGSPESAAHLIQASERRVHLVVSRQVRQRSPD
Sequence of PDZRN4_1, Q6ZMN7 (Q6ZMN7 213-318): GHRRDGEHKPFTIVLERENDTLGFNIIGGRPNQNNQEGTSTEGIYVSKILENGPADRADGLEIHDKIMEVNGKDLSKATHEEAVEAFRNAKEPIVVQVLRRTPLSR
Sequence of HTRA2, O43464 (O43464 355-458): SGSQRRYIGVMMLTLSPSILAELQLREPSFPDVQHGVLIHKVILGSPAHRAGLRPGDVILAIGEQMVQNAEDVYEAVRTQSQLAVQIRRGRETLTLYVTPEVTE
Sequence of MAGI2_4, Q86UL8 (Q86UL8 772-865): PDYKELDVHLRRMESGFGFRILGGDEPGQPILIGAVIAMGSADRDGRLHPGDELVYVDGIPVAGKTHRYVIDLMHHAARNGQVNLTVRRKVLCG
Sequence of LIMK2, P53671 (P53671 143-248): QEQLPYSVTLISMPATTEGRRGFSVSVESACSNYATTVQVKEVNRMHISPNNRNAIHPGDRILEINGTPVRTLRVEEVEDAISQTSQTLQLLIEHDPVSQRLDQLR
Sequence of Inadl_3, Q8NI35 (Q8NI35 359-469): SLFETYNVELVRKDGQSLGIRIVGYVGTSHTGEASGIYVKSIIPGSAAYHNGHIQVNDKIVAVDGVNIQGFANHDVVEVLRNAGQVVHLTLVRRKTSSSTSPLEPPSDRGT
Sequence of Inadl_9, Q8NI35 (Q8NI35 1530-1615): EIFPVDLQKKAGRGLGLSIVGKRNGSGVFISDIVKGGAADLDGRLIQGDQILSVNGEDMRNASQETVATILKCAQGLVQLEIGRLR
Sequence of TJP2_1, Q9UDY2 (Q9UDY2 24-128): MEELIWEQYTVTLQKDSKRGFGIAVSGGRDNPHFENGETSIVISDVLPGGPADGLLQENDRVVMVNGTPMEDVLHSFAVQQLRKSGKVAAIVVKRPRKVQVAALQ
Sequence of MAGI2_3, Q86UL8 (Q86UL8 600-682): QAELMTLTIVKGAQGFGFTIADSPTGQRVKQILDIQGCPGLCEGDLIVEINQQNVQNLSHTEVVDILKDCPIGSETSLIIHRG
Sequence of LNX1_3, Q8TBB1 (Q8TBB1 500-596): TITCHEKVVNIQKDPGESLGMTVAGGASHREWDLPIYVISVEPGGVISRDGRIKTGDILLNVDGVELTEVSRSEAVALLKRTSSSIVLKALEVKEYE

pKd (APBA1_1, Q02410; [1]): below the threshold | pKd (CASK, O14936; [1]): below the threshold | pKd (DLG3_3, Q92796; [1]): below the threshold | pKd (FRMPD3, Q5JV73; [1]): below the threshold | pKd (GOPC, Q9HD26; [1]): 3.65 | pKd (GORASP2, Q9H8Y8; [1]): below the threshold | pKd (GRID2IP_1, A4D2P6; [1]): below the threshold | pKd (GRID2IP_2, A4D2P6; [1]): 3.6 | pKd (HTRA2, O43464; [1]): below the threshold | pKd (IL16_4, Q14005; [1]): below the threshold | pKd (Inadl_3, Q8NI35; [1]): below the threshold | pKd (Inadl_9, Q8NI35; [1]): 3.52 | pKd (LIMK2, P53671; [1]): below the threshold | pKd (LNX1_2, Q8TBB1; [1]): below the threshold | pKd (LNX1_3, Q8TBB1; [1]): 3.55 | pKd (LNX2_2, Q8N448; [1]): 3.65 | pKd (MAGI2_3, Q86UL8; [1]): below the threshold | pKd (MAGI2_4, Q86UL8; [1]): 3.69 | pKd (MAST1, Q9Y2H9; [1]): 4.04 | pKd (MAST2, Q6P0Q8; [1]): 4.83 | pKd (NHERF4_2, Q86UT5; [1]): below the threshold | pKd (PDZD7_3, Q9H5P4; [1]): 3.59 | pKd (PDZRN3_1, Q9UPQ7; [1]): below the threshold | pKd (PDZRN4_1, Q6ZMN7; [1]): 3.49 | pKd (RADIL, Q96JH8; [1]): 3.76 | pKd (RHPN1, Q8TCX5; [1]): below the threshold | pKd (SNTG2, Q9NY99; [1]): below the threshold | pKd (TJP1_2, Q07157; [1]): below the threshold | pKd (TJP2_1, Q9UDY2; [1]): below the threshold
Binder: KQVVPFSSSV [GDA, Q9Y2T3]

pKd (APBA1_1, Q02410; [2]): below the threshold | pKd (CASK, O14936; [2]): below the threshold | pKd (DLG3_3, Q92796; [2]): below the threshold | pKd (FRMPD3, Q5JV73; [2]): below the threshold | pKd (GOPC, Q9HD26; [2]): 3.6 | pKd (GORASP2, Q9H8Y8; [2]): below the threshold | pKd (GRID2IP_1, A4D2P6; [2]): below the threshold | pKd (GRID2IP_2, A4D2P6; [2]): below the threshold | pKd (HTRA2, O43464; [2]): below the threshold | pKd (IL16_4, Q14005; [2]): 3.68 | pKd (Inadl_3, Q8NI35; [2]): below the threshold | pKd (Inadl_9, Q8NI35; [2]): below the threshold | pKd (LIMK2, P53671; [2]): below the threshold | pKd (LNX1_2, Q8TBB1; [2]): below the threshold | pKd (LNX1_3, Q8TBB1; [2]): below the threshold | pKd (LNX2_2, Q8N448; [2]): below the threshold | pKd (MAGI2_3, Q86UL8; [2]): below the threshold | pKd (MAGI2_4, Q86UL8; [2]): 3.54 | pKd (MAST1, Q9Y2H9; [2]): 3.49 | pKd (MAST2, Q6P0Q8; [2]): below the threshold | pKd (NHERF4_2, Q86UT5; [2]): 3.64 | pKd (PDZD7_3, Q9H5P4; [2]): below the threshold | pKd (PDZRN3_1, Q9UPQ7; [2]): below the threshold | pKd (PDZRN4_1, Q6ZMN7; [2]): 3.89 | pKd (RADIL, Q96JH8; [2]): below the threshold | pKd (RHPN1, Q8TCX5; [2]): below the threshold | pKd (SNTG2, Q9NY99; [2]): 3.72 | pKd (TJP1_2, Q07157; [2]): 3.72 | pKd (TJP2_1, Q9UDY2; [2]): 3.56
Binder: PDSYHRRDFW [U2AF2, P26368]
